# Results from publication PMC8741645 (Structure (London, England : 1993), 2021).
# B1: Saccharomyces cerevisiae vacuolar transient receptor potential yeast 1 (TRPY1) channel, full length, wild type (natural protein, UniProt Q12324 1-675, looked up)
# chain: MVSANGDLHLPISNEQCMPENNGSLGFEAPTPRQILRVTLNLKYLIDKVVPIVYDPNDIVCDHSEILSPKVVKLAYEACGGNPKDKANKRKYQSVIIFSLLKVCEWYSILATMEVHNAKLYETRNLASQQLCKLLIEREETRDLQFLFMQLLLRRYVINENDEDQEPLNALELATDMHCTTVIGSSGFQRCLKWIWRGWIVQNGLDPTTFIKDDSLAEVSLISHFNPVRLKAPVYQNYLQMIFSFLFLGLYTLVVNGKDSERVQSFDLLESIFYVFNTGFILDELTKLYYIGYAHLSFWNLFNDTTYLIITFAMGFRAMSVTPLNAKYSSEDWDKISYRVLSCAAPFVWSRLLLYLESQRFIGIMLVILKHMMKESIVFFFLLFLIMIGFTQGFLGLDSADGKRDITGPILGNLTITVLGLGSFDVFEEFAPPYAAILYYGYYFIVSVILLNILIALYSTAYQKVIDNADDEYMALMSQKTLRYIRAPDEDVYVSPLNLIEVFMTPIFRILPPKRAKDLSYTVMTIVYSPFLLLISVKETREARRIKYNRMKRLNDDANEYDTPWDLTDGYLDDDDGLFSDNRNSGMRATQLKNSRSLKLQRTAEQEDVHFKVPKKWYKNVKKCSPSFEQYDNDDTEDDAGEDKDEVKELTKKVENLTAVITDLLEKLDIKDKKE
# Target: the molecule itself
# Experiment: cryo-EM structure
protein,measurement,value
B1,stoichiometry N,4
